According to paper doi:10.1101/2024.11.20.624454 (bioRxiv, 2024):

Target: T1, Mus musculus SPO11, MBP-tagged (Mus musculus, UniProt Q9WTK8 1-396)
T1 sequence (looked up): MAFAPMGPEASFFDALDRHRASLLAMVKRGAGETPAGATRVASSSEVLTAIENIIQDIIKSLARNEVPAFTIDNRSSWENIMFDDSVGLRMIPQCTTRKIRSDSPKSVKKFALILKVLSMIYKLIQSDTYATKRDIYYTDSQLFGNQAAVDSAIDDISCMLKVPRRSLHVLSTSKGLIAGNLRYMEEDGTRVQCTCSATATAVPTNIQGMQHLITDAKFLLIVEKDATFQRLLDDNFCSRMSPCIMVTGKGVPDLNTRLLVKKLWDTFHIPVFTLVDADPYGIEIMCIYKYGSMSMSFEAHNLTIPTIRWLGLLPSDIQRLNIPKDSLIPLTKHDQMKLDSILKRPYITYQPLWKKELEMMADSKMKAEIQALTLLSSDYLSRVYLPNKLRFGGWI
Experiment: SEC-MALS

- stoichiometry N: 1
B1: Mus musculus TOP6BL, HisFlag-tagged (natural protein, UniProt J3QMY9 1-579, looked up)
chain: MERTALAVCEILRYLIIHWKCEAGTAKGTLLDGQLVISIEALRSKHLPDSLHCIITIASTRSVYGGLNFKKFLQEIQPALPRLSAKLALASEEGGRSQDASGIAPCQVTFEVDENSQSLMTDCLVIKHFLRKIIIVHHKLKFSFSVAVNGTLSAETFGAENEPTLRLDNGVTLVVGFQRYVSKPKLNWSEAHCSRIHPVLGHPAPLFIPDAKADTGLLGELTLTPAAALCPSPKGFSSQLCRISSVSIFLYGPLGLPLLSSDQDQPSTAVFRDTSYFIDWKKYNLFMVPNLDLNLDTQSVLPDVNYKAESPEGNQSQNMNAQGPALLLFLFVDFQSDVPVQQAKIWGLHTLLTAHLSAILSESRSTVQQSIQSAVDQVWQLYHHDAKTQQRLQASLSVAVNSIMSVLTGSTRSSFRKTCLQALEAADTQEFGVKLHRIFYDITQHQFLKHCSCDTEQHLTPEKNISAQNTKDQHKNIAQEFPEESIGQAENKRPKRGSPNHGREESRVLGSARDRSPPKSATRDRELTEVSLTARGSQTQAAHGRAQAAEAASPAGGLEDLWLQEVSNLSEWLNPGHRS
